Measurements published in PMC11199599, “SNM1A is crucial for efficient repair of complex DNA breaks in human cells” (Nature Communications, 2024).
One block for each binder: values may come before it.

Legend:
[1] = biological target: T1, Lysine 164 monoubiquitinated human PCNA (PCNA^ub) (human | , UniProt P12004 1-261; P0CG48 1-76, monoubiquitinated at lysine 164 | C-terminus joined to lysine 164 of PCNA); experiment: pull-down; GST-SNM1A peptides held on glutathione-agarose beads, washed with PBS with 250 mM to 1 M salt; 150 ng purified PCNA or PCNA^ub added, tumbled at 4 °C for 1 h, washed as before; immunoblot for PCNA, PCNA^ub, GST; details: both partners purified
T1 construct: PCNA (proliferating cell nuclear antigen), human, carrying one ubiquitin on lysine 164; ubiquitin, conjugated in vitro to lysine 164 of PCNA; also called ubiquitinated PCNA; lysine-164 monoubiquitinated PCNA

Human PCNA = biological target: T2, Human PCNA (human, UniProt P12004 1-261); experiment: as above; details: both partners purified
T2 construct: PCNA (proliferating cell nuclear antigen), human; also called native PCNA; purified PCNA; source: E. coli BL21, purified (IMAC, gel filtration on Superdex 200)
T2 sequence (P12004 whole entry): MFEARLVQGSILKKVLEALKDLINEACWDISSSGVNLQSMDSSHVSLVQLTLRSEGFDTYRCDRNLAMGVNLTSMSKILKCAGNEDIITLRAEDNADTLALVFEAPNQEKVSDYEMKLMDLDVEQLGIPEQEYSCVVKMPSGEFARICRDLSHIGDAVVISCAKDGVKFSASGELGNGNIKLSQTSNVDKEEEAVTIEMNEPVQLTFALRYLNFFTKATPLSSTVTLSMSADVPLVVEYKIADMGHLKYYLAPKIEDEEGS

binding result [1]: binds | binding result (Human PCNA): binds
B1: GST-tagged SNM1A PIP box peptide (GST-PIP) (domain or fragment, human)
chain: ARHPSTKVMKQMDIGVYFGLPPKRKEEKLL
notes: SNM1A (DCLRE1A), human, stretch spanning the PIP box; numbering as for NP_001258745.1; Cloned into pET-41b (MfeI/SalI); also called wildtype PIP box peptide; not shown: GST, N-terminal, kept

binding result [1]: binds
B2: GST-tagged SNM1A peptide spanning the PBZ and UBZ motifs (GST-PBZ-UBZ) (domain or fragment, human)
chain: RPVYDGYCPNCQMPFSSLIGQTPRWHVFECLDSPPRSETECPDGLLCTSTIPFHYKRYTHFLLAQSRAG
notes: SNM1A (DCLRE1A), human, stretch spanning the UBZ and PBZ motifs; numbering as for NP_001258745.1; Cloned into pET-41b; also called UBZ/PBZ peptide; PBZ-plus-UBZ; not shown: GST, N-terminal, kept
